{
  "source": "patent US20090142377",
  "key": {"[1]": {"biological_target": "CH5-1 (nH5 heat-cycled three times 25 to 85 C), H5 of A/Vietnam/1203/04"}, "[2]": {"biological_target": "T1, dOVA-1: ovalbumin 5.2 mg/ml in HBS, acidified with HCl, 40 minutes at 37 C, neutralized, P01012", "T1 chain": "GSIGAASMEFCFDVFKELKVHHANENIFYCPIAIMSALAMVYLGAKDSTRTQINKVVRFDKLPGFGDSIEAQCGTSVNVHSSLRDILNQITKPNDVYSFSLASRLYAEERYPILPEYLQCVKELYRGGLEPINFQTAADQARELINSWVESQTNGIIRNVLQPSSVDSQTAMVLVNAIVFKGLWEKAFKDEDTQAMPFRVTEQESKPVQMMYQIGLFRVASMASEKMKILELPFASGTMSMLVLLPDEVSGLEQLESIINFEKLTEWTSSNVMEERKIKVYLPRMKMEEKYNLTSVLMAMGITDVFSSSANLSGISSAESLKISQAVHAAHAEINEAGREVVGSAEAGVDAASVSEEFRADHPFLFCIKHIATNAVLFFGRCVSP"}, "[3]": {"biological_target": "cross-beta FVIII-1 (cFVIII-1): Helixate FVIII kept at 4 C for 20 hours, stored at -80 C", "sequence (chain, as listed by the source)": "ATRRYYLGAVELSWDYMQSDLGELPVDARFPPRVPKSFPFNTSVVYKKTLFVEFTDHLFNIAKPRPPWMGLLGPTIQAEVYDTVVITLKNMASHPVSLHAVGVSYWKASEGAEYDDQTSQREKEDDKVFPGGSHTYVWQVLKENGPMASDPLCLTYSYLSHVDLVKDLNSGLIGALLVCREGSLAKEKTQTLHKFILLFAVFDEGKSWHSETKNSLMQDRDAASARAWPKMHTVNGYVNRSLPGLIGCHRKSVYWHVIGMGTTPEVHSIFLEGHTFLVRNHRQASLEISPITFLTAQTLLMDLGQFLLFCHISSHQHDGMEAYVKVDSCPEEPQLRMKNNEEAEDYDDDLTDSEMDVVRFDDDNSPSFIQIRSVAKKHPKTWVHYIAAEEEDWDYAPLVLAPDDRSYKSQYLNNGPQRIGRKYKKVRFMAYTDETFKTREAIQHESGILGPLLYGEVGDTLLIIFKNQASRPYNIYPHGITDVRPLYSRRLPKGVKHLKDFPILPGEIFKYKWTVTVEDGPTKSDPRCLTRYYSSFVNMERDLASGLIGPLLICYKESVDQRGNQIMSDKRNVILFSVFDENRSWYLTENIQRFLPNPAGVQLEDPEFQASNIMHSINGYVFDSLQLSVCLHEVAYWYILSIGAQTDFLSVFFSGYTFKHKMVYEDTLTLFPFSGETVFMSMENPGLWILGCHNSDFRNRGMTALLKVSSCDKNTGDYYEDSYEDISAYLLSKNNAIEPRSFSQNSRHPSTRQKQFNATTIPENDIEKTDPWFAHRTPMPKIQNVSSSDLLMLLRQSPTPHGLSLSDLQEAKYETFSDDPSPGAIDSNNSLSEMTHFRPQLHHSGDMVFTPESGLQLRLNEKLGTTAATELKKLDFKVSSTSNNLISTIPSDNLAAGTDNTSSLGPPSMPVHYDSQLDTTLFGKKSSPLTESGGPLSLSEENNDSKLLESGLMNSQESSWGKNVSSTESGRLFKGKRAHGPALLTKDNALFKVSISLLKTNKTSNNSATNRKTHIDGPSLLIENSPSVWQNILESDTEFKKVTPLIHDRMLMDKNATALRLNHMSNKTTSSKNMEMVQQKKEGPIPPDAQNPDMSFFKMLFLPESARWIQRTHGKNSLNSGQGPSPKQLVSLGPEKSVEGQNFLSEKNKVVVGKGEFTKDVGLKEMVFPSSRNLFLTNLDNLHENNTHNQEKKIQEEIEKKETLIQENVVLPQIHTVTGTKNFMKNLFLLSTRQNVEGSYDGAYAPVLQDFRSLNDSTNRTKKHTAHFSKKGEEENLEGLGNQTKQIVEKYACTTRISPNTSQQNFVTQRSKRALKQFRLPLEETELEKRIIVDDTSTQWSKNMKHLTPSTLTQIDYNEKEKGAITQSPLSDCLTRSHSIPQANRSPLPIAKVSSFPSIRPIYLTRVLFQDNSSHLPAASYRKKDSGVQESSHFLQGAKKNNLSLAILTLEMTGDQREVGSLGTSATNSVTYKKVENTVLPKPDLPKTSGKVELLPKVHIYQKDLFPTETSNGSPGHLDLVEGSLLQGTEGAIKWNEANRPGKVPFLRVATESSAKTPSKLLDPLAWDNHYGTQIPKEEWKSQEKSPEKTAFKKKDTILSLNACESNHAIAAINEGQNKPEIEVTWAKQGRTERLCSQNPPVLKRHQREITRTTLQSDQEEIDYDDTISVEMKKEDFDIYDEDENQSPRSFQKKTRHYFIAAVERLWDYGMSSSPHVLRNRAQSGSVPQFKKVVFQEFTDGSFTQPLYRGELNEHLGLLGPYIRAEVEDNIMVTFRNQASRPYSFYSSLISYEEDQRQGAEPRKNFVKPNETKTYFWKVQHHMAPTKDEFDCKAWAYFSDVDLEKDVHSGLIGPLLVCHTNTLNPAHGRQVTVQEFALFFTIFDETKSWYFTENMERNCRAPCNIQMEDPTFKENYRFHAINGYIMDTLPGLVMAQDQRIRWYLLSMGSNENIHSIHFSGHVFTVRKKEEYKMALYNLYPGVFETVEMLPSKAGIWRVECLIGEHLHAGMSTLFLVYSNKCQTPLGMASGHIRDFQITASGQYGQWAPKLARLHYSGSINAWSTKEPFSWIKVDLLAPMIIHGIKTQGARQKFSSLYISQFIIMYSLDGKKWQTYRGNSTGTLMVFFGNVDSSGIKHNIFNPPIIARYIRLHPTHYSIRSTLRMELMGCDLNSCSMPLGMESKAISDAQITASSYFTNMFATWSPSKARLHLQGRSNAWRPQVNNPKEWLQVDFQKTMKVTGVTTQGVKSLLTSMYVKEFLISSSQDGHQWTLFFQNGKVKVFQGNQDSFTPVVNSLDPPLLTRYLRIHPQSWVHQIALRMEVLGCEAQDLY"}, "[4]": {"biological_target": "CH5-3 (nH5 heat-cycled at pH 12, back to pH 7), H5 of A/Vietnam/1203/04"}, "[5]": {"biological_target": "T2, cross-beta nOVA: ovalbumin (chicken egg-white albumin) dissolved at 1 mg/ml in PBS, P01012", "T2 chain": "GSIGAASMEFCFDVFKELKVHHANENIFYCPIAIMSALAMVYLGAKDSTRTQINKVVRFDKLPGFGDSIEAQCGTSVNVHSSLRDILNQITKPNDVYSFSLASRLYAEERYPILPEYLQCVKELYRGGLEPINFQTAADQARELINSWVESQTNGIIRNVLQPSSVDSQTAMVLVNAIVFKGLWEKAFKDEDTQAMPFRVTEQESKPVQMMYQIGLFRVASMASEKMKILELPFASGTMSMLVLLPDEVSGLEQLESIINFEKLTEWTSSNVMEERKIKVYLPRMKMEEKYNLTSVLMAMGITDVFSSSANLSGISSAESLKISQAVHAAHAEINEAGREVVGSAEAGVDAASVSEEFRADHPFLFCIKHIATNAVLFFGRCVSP"}, "[6]": {"biological_target": "cFVIII-5: Helixate FVIII kept at 95 C for 5 minutes", "sequence (chain, as listed by the source)": "as the sequence (chain, as listed by the source) above"}, "[7]": {"biological_target": "cross-beta factor VIII form 12: Helixate FVIII incubated for 1 week at 37 C, stored at 4 C, P00451", "sequence (P00451 whole entry, looked up)": "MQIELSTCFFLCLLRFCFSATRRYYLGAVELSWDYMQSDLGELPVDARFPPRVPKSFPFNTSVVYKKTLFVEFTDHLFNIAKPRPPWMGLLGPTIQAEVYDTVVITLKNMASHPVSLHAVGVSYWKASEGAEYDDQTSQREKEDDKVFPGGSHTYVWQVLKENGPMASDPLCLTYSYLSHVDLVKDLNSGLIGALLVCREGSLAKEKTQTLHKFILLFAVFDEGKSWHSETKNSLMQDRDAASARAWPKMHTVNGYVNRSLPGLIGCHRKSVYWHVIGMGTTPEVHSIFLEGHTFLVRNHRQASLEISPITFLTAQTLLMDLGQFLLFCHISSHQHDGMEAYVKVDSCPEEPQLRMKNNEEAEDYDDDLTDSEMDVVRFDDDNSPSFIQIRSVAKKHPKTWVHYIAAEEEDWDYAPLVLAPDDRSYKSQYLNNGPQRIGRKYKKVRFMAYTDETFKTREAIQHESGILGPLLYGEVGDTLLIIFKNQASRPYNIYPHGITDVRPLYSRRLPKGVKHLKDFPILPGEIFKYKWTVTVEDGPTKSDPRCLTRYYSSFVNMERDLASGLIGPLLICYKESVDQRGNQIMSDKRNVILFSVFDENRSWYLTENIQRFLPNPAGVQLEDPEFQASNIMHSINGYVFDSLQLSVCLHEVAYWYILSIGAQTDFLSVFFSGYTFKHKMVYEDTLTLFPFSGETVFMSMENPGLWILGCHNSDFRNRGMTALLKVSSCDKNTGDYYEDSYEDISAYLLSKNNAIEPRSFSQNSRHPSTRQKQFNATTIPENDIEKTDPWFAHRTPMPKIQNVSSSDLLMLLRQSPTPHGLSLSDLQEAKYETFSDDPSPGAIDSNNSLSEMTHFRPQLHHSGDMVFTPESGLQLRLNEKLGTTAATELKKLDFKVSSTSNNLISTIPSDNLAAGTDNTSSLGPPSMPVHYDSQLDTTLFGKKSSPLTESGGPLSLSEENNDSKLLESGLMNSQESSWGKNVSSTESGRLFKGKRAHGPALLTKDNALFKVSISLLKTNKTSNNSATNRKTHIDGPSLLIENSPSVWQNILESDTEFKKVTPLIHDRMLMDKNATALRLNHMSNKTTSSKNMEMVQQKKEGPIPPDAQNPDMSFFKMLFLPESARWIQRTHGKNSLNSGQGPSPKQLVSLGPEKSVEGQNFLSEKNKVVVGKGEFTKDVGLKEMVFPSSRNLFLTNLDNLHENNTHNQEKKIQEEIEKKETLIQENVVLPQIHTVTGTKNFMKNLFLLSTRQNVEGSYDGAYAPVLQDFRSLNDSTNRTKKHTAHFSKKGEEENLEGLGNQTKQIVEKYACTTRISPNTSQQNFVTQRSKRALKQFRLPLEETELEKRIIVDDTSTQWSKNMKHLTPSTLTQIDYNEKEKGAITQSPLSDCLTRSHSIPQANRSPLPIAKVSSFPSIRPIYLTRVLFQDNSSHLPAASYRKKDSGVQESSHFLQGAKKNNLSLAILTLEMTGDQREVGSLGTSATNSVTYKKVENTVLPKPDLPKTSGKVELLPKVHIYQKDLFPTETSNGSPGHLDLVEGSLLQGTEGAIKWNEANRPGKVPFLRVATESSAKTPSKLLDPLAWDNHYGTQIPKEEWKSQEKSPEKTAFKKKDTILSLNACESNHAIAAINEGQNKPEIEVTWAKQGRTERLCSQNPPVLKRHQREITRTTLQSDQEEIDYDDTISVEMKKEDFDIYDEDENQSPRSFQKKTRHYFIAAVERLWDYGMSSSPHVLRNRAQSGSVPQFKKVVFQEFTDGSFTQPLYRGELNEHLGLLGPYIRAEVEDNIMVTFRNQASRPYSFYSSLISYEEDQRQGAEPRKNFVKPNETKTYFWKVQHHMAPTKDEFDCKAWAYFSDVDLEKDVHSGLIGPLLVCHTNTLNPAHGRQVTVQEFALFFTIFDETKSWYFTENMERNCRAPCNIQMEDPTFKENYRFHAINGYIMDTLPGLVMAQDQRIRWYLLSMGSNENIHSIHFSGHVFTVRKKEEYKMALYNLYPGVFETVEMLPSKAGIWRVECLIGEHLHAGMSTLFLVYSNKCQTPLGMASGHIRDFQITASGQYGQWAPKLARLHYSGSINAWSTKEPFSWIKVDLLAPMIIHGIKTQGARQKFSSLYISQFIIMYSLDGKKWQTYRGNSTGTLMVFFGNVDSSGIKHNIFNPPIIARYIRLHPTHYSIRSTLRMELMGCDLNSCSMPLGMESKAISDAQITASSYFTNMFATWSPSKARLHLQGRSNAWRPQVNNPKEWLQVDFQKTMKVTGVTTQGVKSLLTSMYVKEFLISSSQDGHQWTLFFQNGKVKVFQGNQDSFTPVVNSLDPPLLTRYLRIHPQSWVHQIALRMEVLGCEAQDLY"}, "[8]": {"biological_target": "CH5-4 (nH5 incubated with 100 mM glucose-6-phosphate for 67 h at 80 C), H5 of A/Vietnam/1203/04"}, "[9]": {"biological_target": "CH5-2 (nH5 heat-cycled at pH 2, back to pH 7), H5 of A/Vietnam/1203/04"}, "[10]": {"biological_target": "T3, dOVA-2: ovalbumin 1 mg/ml in PBS, five heat cycles 30 to 85 C, P01012", "T3 chain": "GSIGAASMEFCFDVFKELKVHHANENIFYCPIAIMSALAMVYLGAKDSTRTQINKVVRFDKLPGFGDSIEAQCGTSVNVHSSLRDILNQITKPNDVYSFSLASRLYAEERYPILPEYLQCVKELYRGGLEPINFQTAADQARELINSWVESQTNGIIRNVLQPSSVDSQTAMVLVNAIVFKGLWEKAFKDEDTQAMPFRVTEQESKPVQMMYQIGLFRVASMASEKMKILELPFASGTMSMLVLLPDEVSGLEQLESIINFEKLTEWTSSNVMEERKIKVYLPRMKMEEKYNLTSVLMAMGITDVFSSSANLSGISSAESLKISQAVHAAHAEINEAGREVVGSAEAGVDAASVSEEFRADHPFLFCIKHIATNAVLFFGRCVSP"}, "[11]": {"biological_target": "T4, dOVA-3: ovalbumin 1 mg/ml in PBS, about 16 h at 75 C, P01012", "T4 chain": "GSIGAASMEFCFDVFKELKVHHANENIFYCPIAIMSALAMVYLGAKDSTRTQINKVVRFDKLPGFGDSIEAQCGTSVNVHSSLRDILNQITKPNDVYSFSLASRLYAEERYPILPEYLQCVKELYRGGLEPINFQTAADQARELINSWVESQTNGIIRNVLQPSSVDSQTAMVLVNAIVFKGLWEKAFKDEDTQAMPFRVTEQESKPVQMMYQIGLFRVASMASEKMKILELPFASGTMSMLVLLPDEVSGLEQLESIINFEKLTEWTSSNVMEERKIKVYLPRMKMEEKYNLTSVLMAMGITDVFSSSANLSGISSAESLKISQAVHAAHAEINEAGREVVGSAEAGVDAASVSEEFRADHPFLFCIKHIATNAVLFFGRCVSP"}, "[12]": {"biological_target": "non-treated H5 (nH5) of H5N1 strain A/Vietnam/1203/04 (Protein Sciences)"}},
  "data": [
    {"protein": "tissue type plasminogen activator (tPA; Actilyse, Boehringer-Ingelheim) (protein) SYQVICRDEKTQMIYQQHQSWLRPVLRSNRVEYCWCNSGRAQCHSVPVKSCSEPRCFNGGTCQQALYFSDFVCQCPEGFAGKCCEIDTRATCYEDQGISYRGTWSTAESGAECTNWNSSALAQKPYSGRRPDAIRLGLGNHNYCRNPDRDSKPWCYVFKAGKYSSEFCSTPACSEGNSDCYFGNGSAYRGTHSLTESGASCLPWNSMILIGKVYTAQNPSAQALGLGKHNYCRNPDGDAKPWCHVLKNRRLTWEYCDVPSCSTCGLRQYSQPQFRIKGGLFADIASHPWQAAIFAKHRRSPGERFLCGGILISSCWILSAAHCFQERFPPHHLTVILGRTYRVVPGEEEQKFEVEKYIVHKEFDDDTYDNDIALLQLKSDSSRCAQESSVVRTVCLPPADLQLPDWTECELSGYGKHEALSPFYSERLKEAHVRLYPSSRCTSQHLLNRTVTDNMLCAGDTRSGGPQANLHDACQGDSGGPLVCLNDGRMTLVGIISWGLGCGQKDVPGVYTKVTNYLDWIRDNMRP", "values": [
      {"measurement": "tPA mediated plasminogen activation assay", "setting": "[1]", "value": "cH5-1 (50% of standard)"},
      {"measurement": "tPA activation potency, activation at 10 ug/mL (% of reference)", "setting": "[2]", "value": 97.4},
      {"measurement": "tPA activation potency, activation at 25 ug/mL (% of reference)", "setting": "[2]", "value": 136},
      {"measurement": "tPA/Plg activation assay, compared to a misfolded ovalbumin standard", "setting": "[3]", "value": "cross-beta fVIII forms 1, 12 and 5 is approximately 50, 75 and 125%"},
      {"measurement": "tPA mediated plasminogen activation assay", "setting": "[4]", "value": "cH5-3 (200% of standard)"},
      {"measurement": "tPA activation potency, activation at 10 ug/mL (% of reference)", "setting": "[5]", "value": 48.8},
      {"measurement": "tPA activation potency, activation at 25 ug/mL (% of reference)", "setting": "[5]", "value": 48.1},
      {"measurement": "tPA/Plg activation assay, compared to a misfolded ovalbumin standard", "setting": "[6]", "value": "cross-beta fVIII forms 1, 12 and 5 is approximately 50, 75 and 125%"},
      {"measurement": "tPA/Plg activation assay, compared to a misfolded ovalbumin standard", "setting": "[7]", "value": "cross-beta fVIII forms 1, 12 and 5 is approximately 50, 75 and 125%"},
      {"measurement": "tPA mediated plasminogen activation assay", "setting": "[8]", "value": "cH5-4 (37% of standard)"},
      {"measurement": "tPA mediated plasminogen activation assay", "setting": "[9]", "value": "cH5-2 (150% of standard)"},
      {"measurement": "tPA activation potency, activation at 10 ug/mL (% of reference)", "setting": "[10]", "value": 107},
      {"measurement": "tPA activation potency, activation at 25 ug/mL (% of reference)", "setting": "[10]", "value": 107},
      {"measurement": "tPA activation potency, reference dOVA-2 at 80 ug/mL (column 10 ug/mL) (% of reference)", "setting": "[10]", "value": 100},
      {"measurement": "tPA activation potency, reference dOVA-2 at 80 ug/mL (column 25 ug/mL) (% of reference)", "setting": "[10]", "value": 100},
      {"measurement": "tPA activation potency, activation at 10 ug/mL (% of reference)", "setting": "[11]", "value": 60.9},
      {"measurement": "tPA activation potency, activation at 25 ug/mL (% of reference)", "setting": "[11]", "value": 79},
      {"measurement": "tPA mediated plasminogen activation assay", "setting": "[12]", "value": "nH5 (140% of standard)"}
    ]}
  ]
}
